In paper PMC7641730, “Structural basis of DNA replication origin recognition by human Orc6 protein binding with DNA”:

T1: HsOrc6 full length (Homo sapiens, UniProt Q9Y5N6 1-252)
T1 sequence: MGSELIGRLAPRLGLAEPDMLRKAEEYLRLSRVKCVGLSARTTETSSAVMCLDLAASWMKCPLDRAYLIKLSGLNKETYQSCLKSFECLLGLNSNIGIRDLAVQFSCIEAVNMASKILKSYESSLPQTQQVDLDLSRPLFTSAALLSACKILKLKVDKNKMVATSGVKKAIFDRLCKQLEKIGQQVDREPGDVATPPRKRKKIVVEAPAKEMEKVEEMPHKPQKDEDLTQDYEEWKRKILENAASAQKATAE

T2: HsOrc6-DBD (Homo sapiens, UniProt Q9Y5N6 95-207)
T2 sequence: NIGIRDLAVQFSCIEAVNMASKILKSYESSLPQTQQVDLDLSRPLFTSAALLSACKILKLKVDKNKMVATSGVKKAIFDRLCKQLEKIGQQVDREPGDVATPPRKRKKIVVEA

T3: HsOrc6-M (Homo sapiens, UniProt Q9Y5N6 95-187)
T3 sequence: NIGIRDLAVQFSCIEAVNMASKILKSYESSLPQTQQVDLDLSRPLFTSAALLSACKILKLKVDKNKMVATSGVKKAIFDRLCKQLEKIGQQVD


Columns and labels:
HsOrc6 full length = molecular target: T1, HsOrc6 full length; test: NMR titration (1H,15N-HSQC); range over residues; NMR: 50 mM sodium phosphate pH 6.5, 100 mM NaCl, 2 mM DTT, 298 K; ITC: 50 mM sodium phosphate pH 6.5, 100 mM NaCl, 25 C; EMSA: 25 mM Tris pH 8.0, 60 mM KCl, 5 mM MgCl2, 0.4 mM EDTA, 0.4 mM EGTA, 0.1% NP-40, 10% glycerol, 0.12 mg/ml BSA, room temperature 30 min; conditions: protein: recombinant; tags: none (N-terminal His-tag cleaved with 3C); blunt
HsOrc6-DBD = molecular target: T2, HsOrc6-DBD; test: NMR titration (1H,15N-HSQC); range over residues: K169 47.1±1.4, A170 57.7±1.1, R200 9.92±2.91, I203 11.3±1.5; NMR: 50 mM sodium phosphate pH 6.5, 100 mM NaCl, 2 mM DTT, 298 K; ITC: 50 mM sodium phosphate pH 6.5, 100 mM NaCl, 25 C; EMSA: 25 mM Tris pH 8.0, 60 mM KCl, 5 mM MgCl2, 0.4 mM EDTA, 0.4 mM EGTA, 0.1% NP-40, 10% glycerol, 0.12 mg/ml BSA, room temperature 30 min; conditions: protein: recombinant; tags: none (N-terminal His-tag cleaved); blunt
HsOrc6-M = molecular target: T3, HsOrc6-M; test: NMR (2D NOESY of DNA); smaller shifts than with DBD; NMR: 50 mM sodium phosphate pH 6.5, 100 mM NaCl, 2 mM DTT, 298 K; ITC: 50 mM sodium phosphate pH 6.5, 100 mM NaCl, 25 C; EMSA: 25 mM Tris pH 8.0, 60 mM KCl, 5 mM MgCl2, 0.4 mM EDTA, 0.4 mM EGTA, 0.1% NP-40, 10% glycerol, 0.12 mg/ml BSA, room temperature 30 min; conditions: protein: recombinant; tags: none (N-terminal His-tag cleaved); blunt

Row | Binder | Kd (HsOrc6 full length) [µM] | Kd (HsOrc6-DBD) [µM] | binding result (HsOrc6-M)
1 | 17-bp AT-rich DNA (dsDNA) DNA 1: GGCCCTTTTTTTTCTAG DNA 2: CTAGAAAAAAAAGGGCC | 44.5 | 23.9 | –
2 | 10-bp AT-rich DNA (dsDNA) DNA 1: TTTAAAAAGT DNA 2: ACTTTTTAAA | – | – | binds
